From PMC11154709, “4S-fluorination of ProB29 in insulin lispro slows fibril formation” (The Journal of Biological Chemistry, 2024) come the findings set out here.

A short description of the data set: Far-UV circular dichroism (secondary structure). The class given is physicochemical. Particulars: 60 μM; statement in discussion of CD spectra. The method, then:
Figure 2 Biological activity and CD spectroscopy of lispro variants.A, lispros were injected subcutaneously into diabetic mice, and blood glucose was measured over time after injection. The data presented here represent the mean ± SD of 3 to 6 biological replicates. B–E, far-UV circular dichroism spectra (60 μM lispro in […] phosphate buffer, pH 8.0). […] 4R-F, 4R-fluoroproline; 4S-F, 4S-fluoroproline.
The secondary structure of each insulin lispro variant was probed by circular dichroism spectroscopy. […] All lispro samples were further analyzed by analytical ultracentrifugation (Fig. S3). To determine the dissociation constant of each variant, we fit the data to a reversible monomer-dimer equilibrium ([29]). […]
Circular dichroism spectroscopy:
Equilibrium measurements: The circular dichroism spectra of insulin or lispro samples (60 µM in
100 mM sodium phosphate, pH 8.0) were measured at 25°C in 1 mm quartz cuvettes using a step
size of 0.5 nm and averaging time of 1 s on an Aviv Model 430 Circular Dichroism
Spectrophotom eter. A reference buffer spectrum was subtracted from each sample spectrum. […]
Analytical ultracentrifugation: […]

In the case of “human insulin: 5.8 kDa peptide hormone composed of two disulfide-linked chains (A and B)”, the “oligomeric state at 60 μM” value is recorded as “exists as a dimer at 60 μM”.
